B1: Scaffold protein ILK (Mus musculus), O55222 (parent)
chain: MDDIFTQCREGNAVAVRLWLDNTENDLNQGDDHGFSPLHWACREGRSAVVEMLIMRGARINVMNRGDDTPLHLAASHGHRDIVQKLLQYKADINAVNEHGNVPLHYACFWGQDQVAEDLVANGALVSICNKYGEMPVDKAKAPLRELLRERAEKMGQNLNRIPYKDTFWKGTTRTRPRNGTLNKHSGIDFKQLNFLAKLNENHSGELWKGRWQGNDIVVKVLKVRDWSTRKSRDFNEECPRLRIFSHPNVLPVLGACQAPPAPHPTLITHWMPYGSLYNVLHEGTNFVVDQSQAVKFALDMARGMAFLHTLEPLIPRHALNSRSVMIDEDMTARISMADVKFSFQCPGRMYAPAWVAPEALQKKPEDTNRRSADMWSFAVLLWELVTREVPFADLSNMEIGMKVALEGLRPTIPPGISPHVCKLMKICMNEDPAKRPKFDMIVPILEKMQDK
partner: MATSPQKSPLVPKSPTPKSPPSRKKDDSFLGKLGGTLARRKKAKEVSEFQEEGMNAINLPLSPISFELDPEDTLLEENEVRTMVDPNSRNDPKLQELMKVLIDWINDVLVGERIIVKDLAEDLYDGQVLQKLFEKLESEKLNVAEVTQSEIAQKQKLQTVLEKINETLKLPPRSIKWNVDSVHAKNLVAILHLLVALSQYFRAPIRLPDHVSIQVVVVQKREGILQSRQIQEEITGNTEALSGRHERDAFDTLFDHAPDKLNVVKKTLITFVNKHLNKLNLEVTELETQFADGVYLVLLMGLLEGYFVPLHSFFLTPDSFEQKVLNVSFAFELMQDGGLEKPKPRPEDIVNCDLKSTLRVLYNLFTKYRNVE

Variants of: B1
Conditions: with parva_mouse Parva

Row | Variant | effect of a mutation on the interaction
1 | K220A | decreasing interaction strength
2 | K220M | decreasing interaction strength

— IntAct's records for PubMed 19829382
